From US20230265151A1, “GIP/GLP1 CO-AGONIST COMPOUNDS” (priority 2020, published 2023)
Where a chain is given by its changes, count along the chain named. *1 amine or outer side, *2 acyl side, *3 side chain or, on linkers, in order; H or OH if unused. Where no end group is shown, it is not given here. Side-chain parts run from the residue outwards. [ ]: non-standard residue; d: D form. The star is where a group is joined. αMePhe(2-F) = C[C@](N)(Cc1ccccc1F)C(=O)O; γGlu = O=C(O)[C@H](CCC(=O)[*:2])N[*:1]; C14 diacid = O=C(O)CCCCCCCCCCCCC(=O)*; αMeY = C[C@](N)(Cc1ccc(O)cc1)C(=O)O; αMeF = C[C@](N)(Cc1ccccc1)C(=O)O; αMeL = CC(C)C[C@](C)(N)C(=O)O; Orn = NCCC[C@H](N)C(=O)O; AEEA = NCCOCCOCC(=O)O; Aib = CC(C)(N)C(=O)O

B1: Example 122 (peptide)
peptide: YXEGTXTSDVSIXLDXKAQXEXIKXLIEGGPSSGAPPPS
modifications: Aib2, αMeF(2F)6, αMeL13, Orn16, Aib20, αMeF22, αMeF25, K17 and K24: K(AEEA2-(γ-Glu)-CO-(CH2)12-CO2H), C-terminal NH2
B2: Example 14 (peptide)
peptide: B1 peptide with V10X, X22F, K24X, P31K
modifications: Aib2, αMeF(2F)6, 4Pal10, αMeL13, Orn16, Aib20, D-Glu24, αMeY25, K17 and K31: K(AEEA-(γ-Glu)-CO-(CH2)10-CH3), C-terminal NH2
B3: Example 139 (peptide)
peptide: B1 peptide with V10X, X22F, K24X, E28K
modifications: Aib2, αMeF(2F)6, 4Pal10, αMeL13, Orn16, Aib20, D-Glu24, αMeY25, K17 and K28: K(AEEA2-(γ-Glu)-CO-(CH2)10-CH3), C-terminal NH2
B4: Example 134 (peptide)
peptide: B1 peptide with V10X, X22F, K24X, G30K
modifications: Aib2, αMeF(2F)6, 4Pal10, αMeL13, Orn16, Aib20, D-Glu24, αMeY25, K17 and K30: K(AEEA2-(γ-Glu)-(4-(4-tert-butylphenyl)butanoyl)), C-terminal NH2
B5: Example 125 (peptide)
peptide: B1 peptide with V10X, X22F, K24X, P31K
modifications: Aib2, αMeF(2F)6, 4Pal10, αMeL13, Orn16, Aib20, D-Glu24, αMeY25, K17 and K31: K(AEEA2-(γ-Glu)-(7-(4-carboxyphenoxy)heptanoyl)), C-terminal NH2
B6: Example 121 (peptide)
peptide: B1 peptide with V10X, S11X
modifications: Aib2, αMeF(2F)6, 4Pal10, Aib11, αMeL13, Orn16, Aib20, αMeF22, αMeF25, K17 and K24: K(AEEA2-(γ-Glu)-CO-(CH2)12-CO2H), C-terminal NH2
B7: Example 138 (peptide)
peptide: B1 peptide with V10X, X22F
modifications: Aib2, αMeF(2F)6, 4Pal10, αMeL13, Orn16, Aib20, αMeY25, K17 and K24: K(AEEA2-(γ-Glu)-CO-(CH2)10-CH3), C-terminal NH2
B8: Example 128 (peptide)
peptide: B1 peptide with V10X, X22F
modifications: Aib2, αMeF(2F)6, 4Pal10, αMeL13, Orn16, Aib20, αMeY25, K17 and K24: K(AEEA2-(γ-Glu)-(10-(4-carboxyphenoxy)decanoyl)), C-terminal NH2
B9: Example 145 (peptide)
peptide: B1 peptide with V10X, X22F, K24X, P31K
modifications: Aib2, αMeF(2F)6, 2TA10, αMeL13, Orn16, Aib20, D-Glu24, αMeY25, K17 and K31: K(AEEA2-(γ-Glu)-CO-(CH2)12-CO2H), C-terminal NH2
B10: Example 132 (peptide)
peptide: B1 peptide with V10X, X22F
modifications: Aib2, αMeF(2F)6, 4Pal10, αMeL13, Orn16, Aib20, αMeY25, K17 and K24: K(AEEA2-(γ-Glu)-(4-(4-tert-butylphenyl)butanoyl)), C-terminal NH2
B11: Example 129 (peptide)
peptide: B1 peptide with V10X, X22F, K24X, E28K
modifications: Aib2, αMeF(2F)6, 4Pal10, αMeL13, Orn16, Aib20, D-Glu24, αMeY25, K17 and K28: K(AEEA2-(γ-Glu)-(10-(4-carboxyphenoxy)decanoyl)), C-terminal NH2
B12: Example 137 (peptide)
peptide: B1 peptide with V10X, E21K, X22F, K24X
modifications: Aib2, αMeF(2F)6, 4Pal10, αMeL13, Orn16, Aib20, D-Glu24, αMeY25, K17 and K21: K(AEEA2-(γ-Glu)-CO-(CH2)10-CH3), C-terminal NH2
B13: Example 135 (peptide)
peptide: YXEGTXTSDXSIXLDXKAQXEFIXXLIEGGPSSGAPPPSK
modifications: Aib2, αMeF(2F)6, 4Pal10, αMeL13, Orn16, Aib20, D-Glu24, αMeY25, K17 and K40: K(AEEA2-(γ-Glu)-(4-(4-tert-butylphenyl)butanoyl)), C-terminal NH2
B14: Example 141 (peptide)
peptide: B13 peptide
modifications: Aib2, αMeF(2F)6, 4Pal10, αMeL13, Orn16, Aib20, D-Glu24, αMeY25, K17 and K40: K(AEEA2-(γ-Glu)-CO-(CH2)10-CH3), C-terminal NH2
B15: Example 119 (peptide)
peptide: Y[Aib]EGT[αMePhe(2-F)]TSDV[Aib]I[αMeL]LD[Orn]K([AEEA-AEEA-γGlu-C14 diacid])AQ[Aib]E[αMeF]IK([AEEA-AEEA-γGlu-C14 diacid])[αMeY]LIEGGPSSGAPPPS-NH2
B16: Example 123 (peptide)
peptide: Y[Aib]EGT[αMePhe(2-F)]TSDV[Aib]I[αMeL]LD[Orn]K([AEEA-AEEA-γGlu-C14 diacid])AQ[Aib]E[αMeF]IK([AEEA-AEEA-γGlu-C14 diacid])[αMeF]LIEGGPSSGAPPPS-NH2

Biological target: human glucagon receptor (human, UniProt P47871 26-477)
Experiment: cell-based or functional assay

| Binder | EC50, cAMP |
| --- | --- |
| B1 | > 9950 nM |
| B2 | > 9950 nM |
| B3 | > 9950 nM |
| B4 | > 9950 nM |
| B5 | > 9950 nM |
| B6 | > 9950 nM |
| B7 | > 9950 nM |
| B8 | > 9950 nM |
| B9 | > 9950 nM |
| B10 | > 9950 nM |
| B11 | > 9950 nM |
| B12 | > 9950 nM |
| B13 | > 9950 nM |
| B14 | > 9950 nM |
| B15 | > 9950 nM |
| B16 | > 9950 nM |

Biological target: human GLP-1 receptor (human, UniProt P43220 24-463)
Experiment: cell-based or functional assay

| Binder | EC50, cAMP | Emax, cAMP |
| --- | --- | --- |
| B1 | 0.41 nM | 94.3% |
| B2 | 0.0884 nM | – |
| B3 | 0.141 nM | 111% |
| B4 | 0.577 nM | – |
| B5 | 2.78 nM | – |
| B6 | 8.95 nM | – |
| B7 | 0.267 nM | – |
| B8 | 0.293 nM | – |
| B9 | 0.555 nM | – |
| B10 | 0.182 nM | – |
| B11 | 1.28 nM | – |
| B12 | 0.134 nM | – |
| B13 | 0.271 nM | – |
| B14 | 0.0693 nM | – |
| B15 | 0.351 nM | 99.4% |
| B16 | 0.508 nM | 96.3% |

Biological target: T1, human GIP receptor (human, UniProt P48546 22-466)
T1 sequence (looked up): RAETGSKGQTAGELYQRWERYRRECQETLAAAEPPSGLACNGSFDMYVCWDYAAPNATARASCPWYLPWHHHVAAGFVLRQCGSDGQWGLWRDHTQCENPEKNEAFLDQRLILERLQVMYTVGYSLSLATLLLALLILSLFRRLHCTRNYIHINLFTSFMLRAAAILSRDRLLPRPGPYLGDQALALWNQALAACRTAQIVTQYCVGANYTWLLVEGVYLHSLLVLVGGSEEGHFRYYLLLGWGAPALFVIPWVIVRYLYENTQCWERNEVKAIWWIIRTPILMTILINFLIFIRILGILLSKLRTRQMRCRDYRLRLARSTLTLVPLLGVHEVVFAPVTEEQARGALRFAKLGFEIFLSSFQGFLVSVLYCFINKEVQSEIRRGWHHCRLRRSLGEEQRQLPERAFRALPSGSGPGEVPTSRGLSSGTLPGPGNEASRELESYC
Experiment: cell-based or functional assay

| Binder | EC50, cAMP | Emax, cAMP |
| --- | --- | --- |
| B1 | 0.064 nM | – |
| B2 | 0.00802 nM | – |
| B3 | 0.0108 nM | – |
| B4 | 0.0238 nM | – |
| B5 | 0.0547 nM | – |
| B6 | 0.0271 nM | 92.8% |
| B7 | 0.0197 nM | – |
| B8 | 0.0232 nM | – |
| B9 | 0.0286 nM | 74.8% |
| B10 | 0.0208 nM | – |
| B11 | 0.0248 nM | – |
| B12 | 0.0116 nM | – |
| B13 | 0.0184 nM | 92.3% |
| B14 | 0.00723 nM | 98.8% |
| B15 | 0.0863 nM | – |
| B16 | 0.101 nM | 94.9% |
